Broadly, the Kd is the constant that tells how readily two partners part at equilibrium. A lower Kd goes with tighter binding.

This assay addresses [Ag] (UniProt P04626). Kind of assay: yeast display titration (flow cytometry); Lip2prepro leader, Sag1p fusion. Background: A flow cytometer gives signals particle by particle.

Regarding preproA1-Herceptin scFv, the Kd came to 2.51 nM.
